System: MS2 coat protein
Assay: apparent KD of MS2 coat protein; designed switch direction (-1 OFF switch, 1 ON switch): -1; higher = weaker reporter binding
How it was run: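 Normalised cluster fluorescence was curve-fitted, and each design's median over clusters is its apparent KD. Before this, SNAP-549-labelled MS2 coat protein was titrated from 0.7 or 1.5 nM, doubling to 3 µM, over RNA switches transcribed on Illumina chips by stalled E. coli RNA polymerase. Titrations had no input, 200 uM small-molecule ligand, or an oligonucleotide input, and steps lasted 0.8–1.5 h (lowest) to 10–20 min (highest).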

[1] = input ligand: microRNA oligo, concentration not stated
[2] = Eterna round: R95, input ligand: FMN 200 uM
[3] = Eterna round: R95, input ligand: microRNA oligo, concentration not stated
[4] = Eterna round: R95, input ligand: none

Sequence | apparent KD of MS2 coat protein (input ligand: FMN 200 uM) [nM] | apparent KD of MS2 coat protein (input ligand: none) [nM] | apparent KD of MS2 coat protein [1] [nM] | apparent KD of MS2 coat protein [2] [nM] | apparent KD of MS2 coat protein [3] [nM] | apparent KD of MS2 coat protein [4] [nM]
GGCAUGCAAGGAUAUACUUACAGUGAUGUUCGAAUAAGGCUACUUGAGGAUCACCCAAGUAGAAGGUGCAUGCC [Exclusion 2 (Mod JL EX2 4.74 Vienna UCT mod of Mamaed)] (Eterna round: R97, puzzle: Exclusion 2) | 203 | 26.8 |  |  |  | 
GGCAUGCAAGGAUAUACUUACGGUGAUGUUCGAAGCUUUCUACUUGAGGAUCACCCAAGUAGAAGGUGCAUGCC [jl-ex2.4.75 ViennaUCT mod] (Eterna round: R97, puzzle: Exclusion 2) | 10.5 | 21.1 |  |  |  | 
GGCAUGUGAGGAUAUGUACCUGAGUGCUUUGCGCUCAGGAAACAGAAGGCACAUGAGGAUCACCCAUGUGAUAA [jl-ex4-4.49 ViennaUCT mod] (Eterna round: R97, puzzle: Exclusion 4) | 67.7 | 710 |  |  |  | 
GGCCAGAUAGGAUAUACUUGAGGAUCACCCAAGUAAAGGAGCAAGCUCCGAUCCUUUGGUAGAAGGAUCGGCCA [Diqulees] (Eterna round: R97, puzzle: Exclusion 3) | 92.7 | 52.8 |  |  |  | 
GGCCGUAAUAAGGAUAUCACUAGCCUCGGCUAGUGAGAAGGUAUUACAUGAGGAUCACCCAUGUGGUCAGGCCA [E6/4-B2] (Eterna round: R97, puzzle: Exclusion 6) | 903 | 285 |  |  |  | 
GGCCUUCCGCAAGCUUUUUACAUGAGGAUCACCCAUGUGGUUUUUAGUCUUAUGUUCGGGCCCGUGUGGGCUCGGGC [-25.5, -46.5, A 13%] (Eterna round: R97, puzzle: Sensor, turn-off variant 1) | 28.4 | 29 |  |  |  | 
GGCGAAGUAGGAUAUACAUGAGGAUCACCCAUGUAACCUGAUGGCGUAGGUCUUCUAUGUAGAAGGGCUGCGCC [jl-ex3-4.38 ViennaUCT mod] (Eterna round: R97, puzzle: Exclusion 3) | 16 | 15.6 |  |  |  | 
GGCGGACAUGAGGAUCACCCAUGUCAGGAUAUUAGGCGAUCGUCGAUAGACGAUAGCCUGAGAAGGGACGCGCC [Mat - Exclusion 1 - Eli Mod - D13] (Eterna round: R97, puzzle: Exclusion 1) | 18.6 | 17.7 |  |  |  | 
GGCUGACAUGUAGGAUAUCUGCACGUGUAGUGCAGAGAAGGACAUGAGGAUCACCCAUGUAUAGCGACUUCGGUCGCAACAGCC [ENG1/2-A3] (Eterna round: R96, puzzle: Exclusion NG 1) |  |  | 35.9 |  |  | 
GGGAAACAUGAGGAUCACCCAUGUAAGGAUAUGCAAAAGGAUAUAGAAGGAAAAAAAAGCAGAAGGUACAAAGG [salish99-ex1_r3_100] (puzzle: Exclusion 1) |  |  |  | 68.8 | 59.8 | 57.3
GGGAAACAUGAGGAUCACCCAUGUGAGGAUAUGAAAAAGAAAAGAAAAGAAAGAAGAAUCAGAAGGCACAAAGG [salish99-ex1_r3_079] (puzzle: Exclusion 1) |  |  |  | 75.5 | 36.1 | 54.9
GGGAAGAACCAACAAGUAAACAUGAGGAUCACCCAUGUAAACUUCAUGUGCACGCUUUGCGUGCAAGCUCGUCUUAU [AK-miRNA-r3-14] (Eterna round: R97, puzzle: Sensor, turn-off variant 1) | 19.2 | 18.6 |  |  |  | 
GGGAAGUGAGGAUAUAUGAGAGAGGCUGAACCGGACGAGAAGUAGAAGGCACAUGAGGAUCACCCAUGUAGGGA [JR_Exclu4_Sub025] (puzzle: Exclusion 4) |  |  |  |  | 128 | 
GGGAAGUGAGGAUAUAUGAGAGAGGCUGGACCGGAUGAGAAGUAGAAGGCACAUGAGGAUCACCCAUGUAGGGA [JR_Exclu4_Sub026] (puzzle: Exclusion 4) |  |  |  | 130 | 152 | 209
GGGAGAGAGUGAGGAUAUCAAAGAACAUGAGGAUCACCCAUGUAACCUCAUGUAAGAAGAAGAAGUGAGAAGGCACAGGAGGGU [Default title] (Eterna round: R96, puzzle: Exclusion NG 2) | 463 | 628 | 256 |  |  | 
GGGAGGAGAGUGAGGAUAUUCGAGGGAGGGAGGGUGAAGAAGGCACAUGAGGAUCACCCAUGUGGUGGGAGGUU [RHig 1] (Eterna round: R97, puzzle: Brourd's mod of Exclusion 4) | 23.9 | 38.3 |  |  |  | 
GGGAUGUCAGGAUAUCCAAAAGUCCGCCAGUACGGCAGACAGGAGAAGGGACAUGAGGAUCACCCAUGUAAAGA [Leinrete] (puzzle: Exclusion 4) |  |  |  | 89 | 32.6 | 38.3

Sequence | apparent KD of MS2 coat protein (input ligand: FMN 200 uM) [nM] | apparent KD of MS2 coat protein (input ligand: none) [nM] | apparent KD of MS2 coat protein [1] [nM] | apparent KD of MS2 coat protein [2] [nM] | apparent KD of MS2 coat protein [3] [nM] | apparent KD of MS2 coat protein [4] [nM]
GGGCCCGGAGGAUAUACAAUUCUGGGCUGAAAGGCUCGGGUACAUGAGGAUCACCCAUGUAGAAGGCCGGGCCC [-37.6, -34.7 kcal A 24%, 7bis-0] (Eterna round: R97, puzzle: Exclusion 2) | 33.4 | 14.9 |  |  |  | 
GGGCCCGGUGUGAGGAUAUGUGAUCGGAAAUGAUCGUAGAAGGCACAUGAGGAUCACCCAUGUAAGCCGGGCCC [-31.3, -29.2 kcal, A 26%, 2-0] (Eterna round: R97, puzzle: Brourd's mod of Exclusion 4) | 34.2 | 289 |  |  |  | 
GGGCCCGGUGUGAGGAUAUUGGGCCCGAAAGGGCCCGAGAAGGCACAUGAGGAUCACCCAUGUAAGCCGGGCCC [-46.5, -44.5 kcal, A 23%, 5c-0] (Eterna round: R97, puzzle: Brourd's mod of Exclusion 4) | 15.8 | 14.9 |  |  |  | 
GGGCUCGGAGGAUAUACAAUGGGCUCGGGAAAUCGGGCUCUACAUGAGGAUCACCCAUGUAGAAGGUCGGGCUC [-38.9, -35.6 kcal A 24%, 4,4] (Eterna round: R97, puzzle: Exclusion 2) | 16.4 | 14.1 |  |  |  | 
GGGCUGCGACGCAGCCAAACAAAACAUGAGGAUCACCCAUGUCAGGAUAUACCGAUGCAGCAUCUGUAGAAGGGACAGAUCCAA [Onlaorre] (Eterna round: R96, puzzle: Exclusion NG 3) | 145 | 73.3 | 63.5 |  |  | 
GGGCUGUCAGGAUAUCCCGGGCCCGGGUAAACCCGGGUUUGGGAGAAGGGACAUGAGGAUCACCCAUGUGGCCC [-39.8, -38.8 kcal, A 20%, 5cbis-0] (Eterna round: R97, puzzle: Exclusion 4) | 34.8 | 34.1 |  |  |  | 
GGGCUGUCAGGAUAUUCGAGUUCGAGUGAAAGCUUGAGCUUGAAGAAGGGACAUGAGGAUCACCCAUGUGGCCC [-32.1, -31.1 kcal, A 26%, 1bis-0] (Eterna round: R97, puzzle: Exclusion 4) | 30.5 | 31.9 |  |  |  | 
GGGUGACAGUUAGGAUAUCUUAGCACGCCGUAGAGAGAAGGAACAUGAGGAUCACCCAUGUUGUAGUGCCUCCGGCACUGCUAG [Zaquata] (Eterna round: R96, puzzle: Exclusion NG 1) | 59.2 | 43.5 | 30.1 |  |  | 
GGGUGACAUGAGGAUCACCCAUGUCAGGAUAUGAUACUAUGUACUUCGGUACAUAGUAUCAGAAGGGACAUAAA [Ex1-3: 15] (puzzle: Exclusion 1) |  |  |  |  | 103 | 
GGGUGCAGGCUGAGAUCCUACAUGAGGAUCACCCAUGUGGUCCGGUGACGUGAGUCACCGGACUUAGCUCGUCUUGU [salish99_S_TOV1_R5_007] (Eterna round: R97, puzzle: Sensor, turn-off variant 1) | 162 | 192 |  |  |  | 
GGGUGCAGGCUGCGGUCCUACAUGAGGAUCACCCAUGUGGUCCGGUGGCGUGGGUCGCCGGACUUGGCUCGUCUUGU [salish99_S_TOV1_R5_014] (Eterna round: R97, puzzle: Sensor, turn-off variant 1) | 91.2 | 99.3 |  |  |  | 
GGGUGCGAGCUAAGAUCCUACAUGAGGAUCACCCAUGUGGUCCGGUGACGUGAGUCACCGGACUUAGCUCGUCUUGU [salish99_S_TOV1_R5_005] (Eterna round: R97, puzzle: Sensor, turn-off variant 1) | 26.3 | 29.2 |  |  |  | 
GGUAAAGGCCGAGGAUAUCGGAAAGGAAGUGUACGAGAAGGCGGCAAAAGAACAUGAGGAUCACCCAUGUGGGCCGAUCUUCCG [16th something] (Eterna round: R96, puzzle: Exclusion NG 1) | 23.6 | 18 | 16.8 |  |  | 
GGUAAGCUAGGAUAUGCUUUGGGAAAGCAUUCCUUCGAUAAACUUGAGGAUCACCCAAGUAGAAGGAGCUUCCC [salish99_ex2_r4_017] (Eterna round: R97, puzzle: Exclusion 2) | 11.2 | 11 |  |  |  | 
GGUACUAACACGAAAGUGUUAGUACUAUAAGCUUGUGUUACAUGAGGAUCACCCAUGUCCUCAUAAGCUCGUCUUAU [JL-sv3-2.16 mat747 mod] (puzzle: Sensor v3, turn-off variant 2) |  |  |  | 86.7 | 19.6 | 108
GGUACUAACACGAUAGUGUUAGUACUAUAAGCUUGUGUUACAUGAGGAUCACCCAUGUCCUCAUAGGCUCGUCUUAU [Mat - Sensor v3 - Turn-off var 2 - D86] (puzzle: Sensor v3, turn-off variant 2) |  |  |  | 169 | 30.8 | 166
